Test results taken from paper PMC7192620.

Legend:
YBX1 (YB-1) = YBX1 (YB-1) (UniProt P67809 1-324); experiment: ELONA titration
RBM3 = target: T1, RBM3 (UniProt P98179 1-157); experiment: ELONA titration
T1 sequence: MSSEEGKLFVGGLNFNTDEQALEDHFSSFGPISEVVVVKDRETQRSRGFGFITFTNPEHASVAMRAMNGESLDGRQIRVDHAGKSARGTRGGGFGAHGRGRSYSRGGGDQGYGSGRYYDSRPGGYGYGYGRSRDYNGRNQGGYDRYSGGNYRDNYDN

YBX1 (YB-1), sequence (P67809 whole entry): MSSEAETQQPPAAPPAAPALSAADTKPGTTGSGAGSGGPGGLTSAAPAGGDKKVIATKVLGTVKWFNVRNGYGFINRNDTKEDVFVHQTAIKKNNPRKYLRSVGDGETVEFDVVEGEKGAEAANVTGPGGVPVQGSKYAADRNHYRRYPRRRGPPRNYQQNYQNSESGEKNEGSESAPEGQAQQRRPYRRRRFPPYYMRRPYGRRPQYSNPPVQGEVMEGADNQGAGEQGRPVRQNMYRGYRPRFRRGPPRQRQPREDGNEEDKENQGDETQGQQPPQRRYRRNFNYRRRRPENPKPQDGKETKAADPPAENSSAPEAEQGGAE

B1: Sequence 7 (ssDNA)
DNA: CTAGCATGACTGCAGTACGTTACTTAATTGGGGGGGGGGATTCTGTTTTGTCTCTCTGTCTCTTATACACATCTGACGCTGCCGACGA
modifications: 5' biotin (5Biosg)
- Kd (YBX1 (YB-1)): ~3 nM

B2: Sequence 7 RC (ssDNA)
DNA: TCGTCGGCAGCGTCAGATGTGTATAAGAGACAGAGAGACAAAACAGAATCCCCCCCCCCAATTAAGTAACGTACTGCAGTCATGCTAG
modifications: 5' biotin (5Biosg)
- binding result (RBM3): no binding
